# Test results taken from patent US8691225B2, “Antibodies against the ectodomain of ErbB3 and uses thereof” (Merrimack Pharmaceuticals, Inc., priority 2007, dated 2014).
# B1: Ab #6: human anti-ErbB3 antibody from Fab-phage library, CDRs SEQ ID NOs:7-12; used as IgG1 and IgG2 isotypes; in phase I trials as MM-121 (antibody, V domains shown)
# VH: EVQLLESGGGLVQPGGSLRLSCAASGFTFSHYVMAWVRQAPGKGLEWVSSISSSGGWTLYADSVKGRFTISRDNSKNTLYLQMNSLRAEDTAVYYCTRGLKMATIFDYWGQGTLVTVSS
# VL: QSALTQPASVSGSPGQSITISCTGTSSDVGSYNVVSWYQQHPGKAPKLIIYEVSQRPSGVSNRFSGSKSGNTASLTISGLQTEDEADYYCCSYAGSSIFVIFGGGTKVTVL
# Legend:
# [1] = target: T1, ErbB3 receptor on the surface of MALME-3M cells (Homo sapiens, UniProt P21860); assay: cell surface fluorescence quenching assay (timecourse of ErbB3 downregulation); format: cell-based
# T1 construct: ErbB3 expressed on MALME-3M melanoma cells; host or cells: MALME-3M melanoma cells
# Procedure: In order to determine whether this downregulation of ErbB3 is due to internalization of the ErbB3 receptor on the surface of MALME-3M cells, a cell surface fluorescence quenching assay is preformed. MALME-3M cells are plated overnight on 6-well plates (0.2×10^6 per well) in RPMI+10% FBS. The following day, old medium is removed and cells are preincubated for 60 minutes on ice in RPMI+2% FBS containing 100 nM of Ab#6 conjugated to the fluorescent dye Alexa 488. Cells are then returned to a 37° C. incubator and incubated for 0.5 h, 2 h or 24 h. At the end of each timepoint, cells are trypsinized, washed with PBS+2% BSA+0.1% sodium azide (FACS stain buffer) and stored on ice until all samples are ready. For a Oh timepoint, cells are immediately trypsinized after the 60 minute preincubation and stored on ice. […] One set of tubes is incubated with 25 ug/ml anti-Alexa 488 antibody for 60 minutes on ice to quench any fluorescence source (i.e., Alexa 488-conjugated Ab#6) on the cell surface. […] For each sample 10,000 events are collected and analyzed with a FACSCALIBUR flow cytometer. This protocol gives an indication of what proportion of AB #6 (as measured by fluorescence) remains on the cell surface (indicated by the differential between the fluorescence of the quenched and unquenched cells at each timepoint) and how much is internalized (indicated by the level of fluorescence of quenched cells).
# [2] = target: T2, ErbB3 in MALME-3M xenografts (Homo sapiens, UniProt P21860); assay: total ErbB3 in MALME-3M xenografts in vivo; design: species or system mouse; settings: MALME-3M xenograft, 24 hours post-injection, IgG1 or IgG2 isotype
# T2 construct: ErbB3 expressed on MALME-3M melanoma cells; host or cells: MALME-3M melanoma cells
# Procedure: T-cell deficient nu/nu mice (3-4 week old female mice originated at NIH; outbred; albino background) were purchased from Charles River Labs (Wilmington, Mass.). MALME-3M cells for implantation were grown in culture (RPMI media, 10% FBS, L-glutamine and antibiotics, 37° C., 5% CO2) to about 80% confluency before harvesting. Cells were kept on ice until implantation.
# The tumors were measured (length by width) by digital caliper and the mice were pretreated with murine IgG2a (Sigma, M7769—5 mg) by intravenous injection to block in vivo depletion of tested antibodies by murine Fc receptors.
# Final tumor measurements (L×W) were taken, the mice were euthanized by CO2 asphyxiation and tumors were excised, snap frozen in liquid nitrogen, and were stored at −80° C. (for biochemical analysis). Final tumor measurements were analyzed and graphed by tumor area and tumor volume as described, for example, in Burtrum et al., (2003) Cancer Res., 63:8912-8921. The data was also analyzed by “normalized” and “non-normalized” means for both tumor volume and tumor area. For the “normalization” of the data, at each time point of measurement, each tumor in each group was divided by the initial tumor size determined by caliper measurement.
# [3] = test system: ACHN cells; assay: CellTiter-Glo proliferation assay; format: cell-based, human; settings: 96 hours
# Procedure: (§1) MALME3M, ACHN and NCI/AdrR cells are seeded in 96 well tissue culture plates and grown in RPMI-1640 media supplemented with antibiotics, 2 mM L-glutamine and 10% FBS for 24 hours at 37 degrees Celsius and 5% carbon dioxide. […] Cells are grown for 96 hours at 37° C. and 5% carbon dioxide, then harvested with CellTiter-Glo® Luminescent Cell Viability Assay (Promega, G7573) and analyzed on a luminometer. Media containing no serum and antibody is used as control.
# [4] = test system: AdrR ovarian cancer cells; assay: CellTiter-Glo proliferation assay; format: cell-based, human; settings: 96 hours
# Procedure: as §1
# [5] = test system: MALME-3M cells; assay: CellTiter-Glo proliferation assay; format: cell-based, human; settings: 96 hours
# Procedure: as §1
# [6] = test system: ErbB3 phosphorylation in OVCAR 5; assay: ErbB3 phosphorylation ELISA in ovarian tumor cell line; format: cell-based, human; settings: IgG2 isotype
# Procedure: (§2) All ELISA reagents for the total and phospho-ErbB3 ELISAs are purchased from R&D Systems as DUOSET kits. 96-well NUNC MAXISORB plates are coated with 50 uL of an antibody and incubated overnight at room temperature. Next morning, plates are washed 3 times with […] in the BIOTEK plate washer with Dulbecco's phosphate buffered saline without calcium or magnesium (PBS) with added Tween detergent (PBST) (0.05% Tween-20). […] The plates are washed 3 times with […] in the BIOTEK plate washer with PBST (0.05% Tween-20). 50 μL of cell lysates and standards diluted in 50% Lysis buffer and 1% BSA are used in duplicates for further processing. Samples are incubated for 2 hrs at 4° C. on a plate shaker and washed as before. About 50 μl of a detection antibody diluted in 2% BSA, PBST is added and incubated for about 1 hr at room temperature. For phosphor-ErbB3, the detection antibody is directly conjugated to horseradish peroxidase (HRP) and incubated for 2 hrs at room temperature. The plate is washed as before. About 50 μl of Streptavidin-HRP is added and incubate for 30 min at room temperature (except for pErbB3). The plates are washed as before. About 50 μL of SUPERSIGNAL ELISA Pico (Thermo Scientific) substrate is added and the plate is read using a FUSION plate reader. The data are analyzed using EXCEL. […]
# [7] = test system: ErbB3 phosphorylation in OVCAR 8; assay: as above; format: cell-based, human; settings: IgG2 isotype
# Procedure: as §2
molecule,measurement,setting,value
B1,downregulation of cell surface ErbB3 receptors,[1]; after about 30 minutes,about 50%
same,downregulation of cell surface ErbB3 receptors,[1]; at about 24 hours,about 93%
same,downregulation of total ErbB3 in xenograft tumors,[2],significant downregulation of total ErbB3
same,inhibition of proliferation,[3],about 25.4%
same,inhibition of proliferation,[4],about 30.5%
same,inhibition of proliferation,[5],about 19.6%
same,inhibition of ErbB3 phosphorylation,[6],inhibited ErbB3 phosphorylation
same,inhibition of ErbB3 phosphorylation,[7],inhibited ErbB3 phosphorylation
